In article PMC4072508, “Genome-Wide Prediction and Validation of Peptides That Bind Human Prosurvival Bcl-2 Proteins” (PLoS Computational Biology, 2014):

T1: Bcl-w, Q92843
T1 chain: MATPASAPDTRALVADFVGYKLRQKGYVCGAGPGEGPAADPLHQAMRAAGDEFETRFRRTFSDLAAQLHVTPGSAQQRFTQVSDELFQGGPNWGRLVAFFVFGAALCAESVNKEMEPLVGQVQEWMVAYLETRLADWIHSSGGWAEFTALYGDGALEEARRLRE

T2: Bfl-1, Q16548
T2 chain: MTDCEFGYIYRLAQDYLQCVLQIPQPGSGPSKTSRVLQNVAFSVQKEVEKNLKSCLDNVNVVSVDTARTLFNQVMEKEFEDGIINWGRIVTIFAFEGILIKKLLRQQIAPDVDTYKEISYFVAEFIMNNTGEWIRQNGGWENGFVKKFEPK

T3: Mcl-1, Q07820
T3 chain: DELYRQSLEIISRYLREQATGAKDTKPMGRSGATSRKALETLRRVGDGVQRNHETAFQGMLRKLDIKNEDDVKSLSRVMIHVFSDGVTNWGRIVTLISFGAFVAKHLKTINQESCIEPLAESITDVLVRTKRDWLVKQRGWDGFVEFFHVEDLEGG


What was measured:
Experiment in all cases: peptide SPOT array, c-Myc-tagged receptor at 1 uM or 100 nM, anti-c-Myc-Cy3
[1] = target: Bcl-2, P10415
[2] = target: T1, Bcl-w, Q92843
[3] = target: Bcl-xL, Q07817
[4] = target: T2, Bfl-1, Q16548
[5] = target: T3, Mcl-1, Q07820

Bcl-2, P10415, sequence (P10415 1-217): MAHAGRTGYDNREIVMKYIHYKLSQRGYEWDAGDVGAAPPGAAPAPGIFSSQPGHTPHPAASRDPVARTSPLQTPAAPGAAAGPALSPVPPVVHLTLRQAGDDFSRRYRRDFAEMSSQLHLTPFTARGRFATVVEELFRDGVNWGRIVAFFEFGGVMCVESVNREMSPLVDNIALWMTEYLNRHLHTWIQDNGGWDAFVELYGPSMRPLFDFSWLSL
Bcl-xL, Q07817, sequence (Q07817 1-209): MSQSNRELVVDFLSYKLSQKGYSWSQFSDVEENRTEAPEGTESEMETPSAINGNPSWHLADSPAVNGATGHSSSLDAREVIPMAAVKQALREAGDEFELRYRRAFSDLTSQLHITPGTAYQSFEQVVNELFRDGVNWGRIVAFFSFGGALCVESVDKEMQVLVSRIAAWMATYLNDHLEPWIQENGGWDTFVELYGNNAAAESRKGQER

Row | Binder | SPOT signal as a fraction of Bim BH3's signal on the same receptor and array [1] | SPOT signal as a fraction of Bim BH3's signal on the same receptor and array [2] | SPOT signal as a fraction of Bim BH3's signal on the same receptor and array [3] | SPOT signal as a fraction of Bim BH3's signal on the same receptor and array [4] | SPOT signal as a fraction of Bim BH3's signal on the same receptor and array [5]
1 | PVGYLVESGRLSVMGCDVLKAVSDYF [MFI2] | 0.01 | 0.02 | 0.04 | 0.04 | 0.03
2 | CLKRCRSAQVLHLYGATYSADGEDRA [NLRP12] | 0.05 | 0.07 | 0.19 | 0.11 | 0.06
3 | EERAQNVTRLLRKQAEEVNTEWEKLN | 0.01 | 0.04 | 0.04 | 0.04 | 0.02
4 | TNISWRACDHLRCIACDFLVVSYDDY [C8orf37] | 0.01 | 0.15 | 0.08 | 0.02 | 0.08
5 | GFANHDVVEVLRNAGQVVHLTLVRRK [INADL] | 0.12 | 0.31 | 0.33 | 0.38 | 0.34
6 | EVKQSMSSQSLDKAAEDMPEAEQDLE [APBA1] | 0.01 | 0.02 | 0.02 | 0.02 | 0.02
7 | RIEERKAIIGLYNYAHEMTHGASDRE [NCKAP1] | 0.02 | 0.03 | 0.04 | 0.03 | 0.03
8 | IGQRQTVVRTLNATGEEIIQQSSKTD | 0.01 | 0.02 | 0.03 | 0.03 | 0.02
9 | RDASKILVDALQKFADDMYSLYGGNA [ATP6AP2] | 0.01 | 0.05 | 0.03 | 0.02 | 0.02
10 | FSSDAVTSRVLLNVGQEVIAVVEENK [MOV10L1] | 0.01 | 0.02 | 0.03 | 0.02 | 0.02
11 | EEIIHKLAMQDRHIGDNIDHRMVRED [PXT1] | 0.01 | 0.02 | 0.02 | 0.02 | 0.03
12 | FVGCEFLHHLLREWGEELQAVLRSSQ [GEMIN4] | 0.01 | 0.02 | 0.04 | 0.02 | 0.04
13 | TIRNGHDSELLRSLAEELPLEQGFTI [PLCD4] | 0.01 | 0.01 | 0.02 | 0.02 | 0.02
14 | KRALIQCAKDIAKASDEVTRLAKEVA [VCL] | 0.03 | 0.15 | 0.12 | 0.08 | 0.03
15 | MVLDPSLAEHLSHFGIDMLKMQKTDK [USP5] | 0.02 | 0.03 | 0.07 | 0.07 | 0.04
16 | FEKLRMIAKEIRHVGRMASVNMDPAL [RAPGEF2] | 0.1 | 0.18 | 0.19 | 0.38 | 0.13
17 | CSTNNPSQAKLRRELDESLQVAERLT [CLU] | 0.01 | 0.02 | 0.03 | 0.02 | 0.02
18 | LGDGPKLVRELFRVAEEHAPSIVFID [PSMC1] | 0.01 | 0.02 | 0.04 | 0.03 | 0.04
19 | FYRRRDISNTLIMLADKHAKEIEEES [MTA3] | 0.03 | 0.09 | 0.15 | 0.08 | 0.07
20 | AEHEDDLPENLSEIADLWNSPTRTHG [CDH23] | 0.01 | 0.02 | 0.02 | 0.01 | 0.02
21 | DTIYQGFAECLIRLGDSMGRGGELET [NRN1L] | 0.01 | 0.03 | 0.035 | 0.02 | 0.17
22 | AIKPVSFIRDLKKIARHFRFGNQEDA [USP36] | 0.19 | 0.75 | 0.61 | 0.65 | 0.39
